B1: HDV Ribozyme (parent)
chain: GGCCGGCAUGGUCCCAGCCUCCUCGCUGGCGCCGGCUGGGCAACAUUCCGAGGGGACCGUCCCCUCGGUAAUGGCGAAUGGGACCCA

Variants of B1 are the subject of the series. In words: self-cleavage, relative activity (ratio to wild type); higher = more cleavage; co-transcriptional.
In the case of GGCCGGCAUGGUCCCAGCCUCCUCGCUGGAGCCGGCUGGGCAACAUUCCGAGGGGACCGUCCCCUCGGUAAUGGCGAAUCGGACCCA [C30A G80C], the self-cleavage worked out at 0.272.

As for GGCCGGCAUGGUCCCAGCCUCCUCGCUGGAGCCGGCAGGGCAACAUUCCGAGGGGACCGUCCCCUCGGUAAUGGCGAAUGGGACCCA [C30A U37A], the self-cleavage was 0.

For the variant GGCCGGCAUGGUCCCAGCCUCCUCGCUGGAGCCGGCUGGGCAACAUUCCGAGGGGACCGUCCCCUCGGUAAUGGCGAAUGAGACCCA [C30A G81A], the self-cleavage was 0.111.

Take GGCCGGCAUGGUCCCAGCCUCCUCGCUGGAGCCGGCUGGGCAACAUUCCGAGGGGACCGUCCCCUCGGUAAUGGCGAAUGUGACCCA [C30A G81U]: the self-cleavage stood at 0.134.

On to GGCCGGCAUGGUCCCAGCCUCCUCGCUGGGGCCGGCUGGGCAUCAUUCCGAGGGGACCGUCCCCUCGGUAAUGGCGAAUGGGACCCA [C30G A43U], for which the self-cleavage stood at 0.194.

Take GGCCGGCAUGGUCCCAGCCUCCUCGCUGGGGCCGGCUGGGCAACAUUCCGAGGGGACCGUCCCCUAGGUAAUGGCGAAUGGGACCCA [C30G C66A]: the self-cleavage was determined as 0.0282.

For GGCCGGCAUGGUCCCAGCCUCCUCGCUGGGGCCGGCUGGGCAACAUUCCGAGGGGAGCGUCCCCUCGGUAAUGGCGAAUGGGACCCA [C30G C57G], the self-cleavage came out at 0.208.

For GGCCGGCAUGGUCCCAGCCUCCUCGCUGGGGCCGGCUGGGCAACAUUCCGAGGGGAACGUCCCCUCGGUAAUGGCGAAUGGGACCCA [C30G C57A], the self-cleavage turned out to be 0.138.

As to GGCCGGCAUGGUCCCAGCCUCCUCGCUGGGGCCGGCUGGGCAACAUUCCGUGGGGACCGUCCCCUCGGUAAUGGCGAAUGGGACCCA [C30G A51U], the self-cleavage is 0.0297.

Consider GGCCGGCAUGGUCCCAGCCUCCUCGCUGGGGCCGGCUGGGCAACAUUCCGGGGGGACCGUCCCCUCGGUAAUGGCGAAUGGGACCCA [C30G A51G], for which the self-cleavage is 0.

In the case of GGCCGGCAUGGUCCCAGCCUCCUCGCUGGAGCCGGCUGGGCAACAUUCCGAGGGGACCGUCCCCUCAGUAAUGGCGAAUGGGACCCA [C30A G67A], the self-cleavage is 0.623.

Regarding GGCCGGCAUGGUCCCAGCCUCCUCGCUGGAGCCGGCUGGGCAACAUUCCGAGGGGACCGUCCCCUCUGUAAUGGCGAAUGGGACCCA [C30A G67U], the self-cleavage turned out to be 0.339.

In the case of GGCCGGCAUGGUCCCAGCCUCCUCGCUGGGGCCGGCUGGGCAACAUUCCGAGGGGACCGUCCCCUCGGUAAUGGCGAAUGGGCCCCA [C30G A83C], the self-cleavage worked out at 0.0489.

Take GGCCGGCAUGGUCCCAGCCUCCUCGCUGGGGCCGGCUGGGGAACAUUCCGAGGGGACCGUCCCCUCGGUAAUGGCGAAUGGGACCCA [C30G C41G]: the self-cleavage came out at 0.0707.

Turning to GGCCGGCAUGGUCCCAGCCUCCUCGCUGGAGCCGGCUGGGCAACAUUCCGAGGGGACCGUCCCCUCGGUAAUGGCGAACGGGACCCA [C30A U79C], the self-cleavage came out at 0.216.

In the case of GGCCGGCAUGGUCCCAGCCUCCUCGCUGGAGCCGGCUGGGCAACAUUCCGAGGGGACCAUCCCCUCGGUAAUGGCGAAUGGGACCCA [C30A G59A], the self-cleavage amounted to 0.561.

In the case of GGCCGGCAUGGUCCCAGCCUCCUCGCUGGGGCGGGCUGGGCAACAUUCCGAGGGGACCGUCCCCUCGGUAAUGGCGAAUGGGACCCA [C30G C33G], the self-cleavage was 0.115.

As for GGCCGGCAUGGUCCCAGCCUCCUCGCUGGGGCAGGCUGGGCAACAUUCCGAGGGGACCGUCCCCUCGGUAAUGGCGAAUGGGACCCA [C30G C33A], the self-cleavage is 0.0519.

GGCCGGCAUGGUCCCAGCCUCCUCGCUGGGGCCGGCUGGGCAACAUUCCGAGGGGGCCGUCCCCUCGGUAAUGGCGAAUGGGACCCA [C30G A56G]: the self-cleavage worked out at 0.0941.

In the case of GGCCGGCAUGGUCCCAGCCUCCUCGCUGGGGCCGGCUGGGCAACAUUCCGAGGGGUCCGUCCCCUCGGUAAUGGCGAAUGGGACCCA [C30G A56U], the self-cleavage came to 0.116.

On to GGCCGGCAUGGUCCCAGCCUCCUCGCUGGGGCCGGCUGGGCAACAUUCCGAGGGGACCGUCCCCUCGGUAAUGGCGGAUGGGACCCA [C30G A77G], for which the self-cleavage turned out to be 0.189.

GGCCGGCAUGGUCCCAGCCUCCUCGCUGGGGCCGGCUGGGCAACAUUCCGAGGGGACCGUCCCCUCGGUAAUGGCGCAUGGGACCCA [C30G A77C]: the self-cleavage is 0.095.

Consider GGCCGGCAUGGUCCCAGCCUCCUCGCUGGAGCCGGCUGGGCAACAUUCCGAGGGGACCGCCCCCUCGGUAAUGGCGAAUGGGACCCA [C30A U60C], for which the self-cleavage was 0.582.

On to GGCCGGCAUGGUCCCAGCCUCCUCGCUGGAGCCGGCUGGGCAACAUUCCGAGGGGACCGUCCCCUCGGUAAUGUCGAAUGGGACCCA [C30A G74U], for which the self-cleavage is 0.223.

As for GGCCGGCAUGGUCCCAGCCUCCUCGCUGGAGCCGGCUGGGCAACAUUCCGAGGGGACCGUCCCCUCGGUAAUGACGAAUGGGACCCA [C30A G74A], the self-cleavage came to 0.123.

With GGCCGGCAUGGUCCCAGCCUCCUCGCUGGAGCCGGCUGGGCAACAAUCCGAGGGGACCGUCCCCUCGGUAAUGGCGAAUGGGACCCA [C30A U46A], the self-cleavage amounted to 0.147.

On to GGCCGGCAUGGUCCCAGCCUCCUCGCUGGAGCCGGCUGGGCAACAGUCCGAGGGGACCGUCCCCUCGGUAAUGGCGAAUGGGACCCA [C30A U46G], for which the self-cleavage worked out at 0.256.

For GGCCGGCAUGGUCCCAGCCUCCUCGCUGGGGCCGGCUGGGCAACAUUCUGAGGGGACCGUCCCCUCGGUAAUGGCGAAUGGGACCCA [C30G C49U], the self-cleavage worked out at 0.0511.

For GGCCGGCAUGGUCCCAGCCUCCUCGCUGGGGCCGGCUGGGCAACAUUCAGAGGGGACCGUCCCCUCGGUAAUGGCGAAUGGGACCCA [C30G C49A], the self-cleavage stood at 0.116.

Take GGCCGGCAUGGUCCCAGCCUCCUCGCUGGGGCCGGCUGGGCAACAUUCGGAGGGGACCGUCCCCUCGGUAAUGGCGAAUGGGACCCA [C30G C49G]: the self-cleavage worked out at 0.203.

For GGCCGGCAUGGUCCCAGCCUCCUCGCUGGGGCCGGCUGGGCAACAUUCCGAGGGGACCGUCCCCUCGGUCAUGGCGAAUGGGACCCA [C30G A70C], the self-cleavage amounted to 0.106.

As for GGCCGGCAUGGUCCCAGCCUCCUCGCUGGGGCCGGCUGGGCAACAUUCCGAGGGGACCGUCCCCUCGGUAAUGGCGAAUGGGACCCA [C30G], the self-cleavage is 0.0914.

(Values after the RNAGym collection of RNA variant scans (doi:10.7554/elife.80360).)
